Measured values published in PMC7641332 (Nucleic Acids Research, 2020).

T1: 2× MBP-BRCA2OB2-His10 (human, UniProt P51587 2780-3080)
T1 sequence: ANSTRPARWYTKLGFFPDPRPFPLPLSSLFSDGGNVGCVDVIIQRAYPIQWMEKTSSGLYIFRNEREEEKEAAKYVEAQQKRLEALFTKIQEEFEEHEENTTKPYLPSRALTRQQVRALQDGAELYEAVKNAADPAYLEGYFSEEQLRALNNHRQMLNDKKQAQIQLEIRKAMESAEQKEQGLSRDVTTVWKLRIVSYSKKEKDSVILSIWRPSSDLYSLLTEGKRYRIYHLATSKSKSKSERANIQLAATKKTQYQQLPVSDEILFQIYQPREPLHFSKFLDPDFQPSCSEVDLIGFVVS

B1: GST-BRCA2NT-HA-His10 (domain or fragment)
chain: MPIGSKERPTFFEIFKTRCNKADLGPISLNWFEELSSEAPPYNSEPAEESEHKNNNYEPNLFKTPQRKPSYNQLASTPIIFKEQGLTLPLYQSPVKELDKFKLDLGRNVPNSRHKSLRTVKTKMDQADDVSCPLLNSCLSESPVVLQCTHVTPQRDKSVVCGSLFHTPKFVKGRQTPKHISESLGAEVDPDMSWSSSLATPPTLSSTVLIVRNEEASETVFPHDTTANVKSYFSNHDESLKKNDRFIASVTDSENTNQREAASHGFGKTSGNSFKVNSCKDHIGKSMPNVLEDEVYETVVDTSEEDSFSLCFSKCRTKNLQKVRTSKTRKKIFHEANADECEKSKNQVKEKYSFVSEVEPNDTDPLDSNVANQKPFESGSDKISKEVVPSLACEWSQLTLSGLNGAQMEKIPLLHISSCDQNISEKDLLDTENKRKKDFLTSENSLPRISSLPKSEKPLNEETVVNKRDEEQHLESHTDCILAVKQAISGTSPVASSFQGIKKSIFRIRESPKETFNASFSGHMTDPNFKKETEASESGLEIHTVCSQKEDSLCPNLIDNGSWPATTTQNSVALKNAGLISTLKKKTNKFIYAIHDETSYKGKKIPKDQKSELINCSAQFEANAFEAPLTFANADSGLLHSSVKRSCSQNDSEEPTLSLTSSFGTILRKCSRNETCSNNTVISQDLDYKEAKCNKEKLQLFITPEADSLSCLQE
B2: 2× MBP-BRCA2NT-FLAG-His10 (domain or fragment)
chain: B1 chain
B3: GST-BRCA2N9 (domain or fragment)
chain: ILAVKQAISGTSPVASSFQGIKKSIFRIRESPKETFNASFSGHMTDPNFKKETEASESGLEIHTVCSQKEDSLCPNLIDNGSWPATTTQNSVALKNAGLISTLKKKTNKFIYAIHDETSYKGKKIPKDQKSELINCSAQFEANAFEAPLTFANADSGLLHSSVKRSCSQNDSEEPTLSLTSSFGTILRKCSRNETCSNNTVISQDLDYKEAKCNKEKLQLFITPEADSLSCLQE
B4: GST-BRCA2N7 (domain or fragment)
chain: VTDSENTNQREAASHGFGKTSGNSFKVNSCKDHIGKSMPNVLEDEVYETVVDTSEEDSFSLCFSKCRTKNLQKVRTSKTRKKIFHEANADECEKSKNQVKEKYSFVSEVEPNDTDPLDSNV
B5: 2× MBP-BRCA2CT-FLAG-His10 (domain or fragment)
chain: QEKSLKASKSTPDGTIKDRRLFMHHVSLEPITCVPFRTTKERQEIQNPNFTAPGQEFLSKSHLYEHLTLEKSSSNLAVSGHPFYQVSATRNEKMRHLITTGRPTKVFVPPFKTKSHFHRVEQCVRNINLEENRQKQNIDGHGSDDSKNKINDNEIHQFNKNNSNQAVAVTFTKCEEEPLDLITSLQNARDIQDMRIKKKQRQRVFPQPGSLYLAKTSTLPRISLKAAVGGQVPSACSHKQLYTYGVSKHCIKINSKNAESFQFHTEDYFGKESLWTGKGIQLADGGWLIPSNDGKAGKEEFYRALCDTPGVDPKLISRIWVYNHYRWIIWKLAAMECAFPKEFANRCLSPERVLLQLKYRYDTEIDRSRRSAIKKIMERDDTAAKTLVLCVSDIISLSANISETSSNKTSSADTQKVAIIELTDGWYAVKAQLDPPLLAVLKNGRLTVGQKIILHGAELVGSPDACTPLEAPESLMLKISANSTRPARWYTKLGFFPDPRPFPLPLSSLFSDGGNVGCVDVIIQRAYPIQWMEKTSSGLYIFRNEREEEKEAAKYVEAQQKRLEALFTKIQEEFEEHEENTTKPYLPSRALTRQQVRALQDGAELYEAVKNAADPAYLEGYFSEEQLRALNNHRQMLNDKKQAQIQLEIRKAMESAEQKEQGLSRDVTTVWKLRIVSYSKKEKDSVILSIWRPSSDLYSLLTEGKRYRIYHLATSKSKSKSERANIQLAATKKTQYQQLPVSDEILFQIYQPREPLHFSKFLDPDFQPSCSEVDLIGFVVSVVKKTGLAPFVYLSDECYNLLAIKFWIDLNEDIIKPHMLIAASNLQWRPESKSGLLTLFAGDFSVFSASPKEGHFQETFNKMKNTVENIDILCNEAENKLMHILHANDPKWSTPTKDCTSGPYTAQIIPGTGNKLLMSSPNCEIYYQSPLSLCMAKRKSVSTPVSAQMTSKSCKGEKEIDDQKNCKKRRALDFLSRLPLPPPVSPICTFVSPAAQKAFQPPRSCGTKYETPIKKKELNSPQMTPFKKFNEISLLESNSIADEELALINTQALLSGSTGEKQFISVSESTRTAPTSSEDYLRLKRRCTTSLIKEQESSQASTEECEKNKQDTITTKKYI

How the values were obtained:
Assay in all cases: pull-down
[1] = target: B5
GST-BRCA2NT-HA-His10 = target: B1
2× MBP-BRCA2OB2-His10 = target: T1, 2× MBP-BRCA2OB2-His10
[2] = target: B2

Binder: B1
binding result [1]: binds

Binder: B2
binding result (GST-BRCA2NT-HA-His10): binds

Binder: B3
binding result (2× MBP-BRCA2OB2-His10): binds | binding result [2]: binds

Binder: B4
binding result [2]: binds

Binder: B5
fold stronger than the interaction of MBP-BRCA2NT with GST-BRCA2NT (GST-BRCA2NT-HA-His10): ~6 fold
